Data: the supplement of paper PMC12855868

B1: library; numbered along this chain (parent)
chain: MAAAGGARLLRAASAVLGGPAGRWLHHAGSRAGSSGLLRNRGPGGSAEASRSLSVSARARSSSEDKITVHFINRDGETLTTKGKVGDSLLDVVVENNLDIDGFGACEGTLACSTCHLIFEDHIYEKLDAITDEENDMLDLAYGLTDRSRLGCQICLTKSMDNMTVRVPETVADARQSIDVGKTS

Variants of: B1
Assay: scaled log2 fold change in cell abundance, elesclomol vs control (0 = silent mean, 1 = nonsense mean) (scaled log2 ratio); higher = higher viability under elesclomol (loss of FDX1 cuproptosis function)
Settings: glucose 10 mM
[1] = with ABC1 FDX1 KO, elesclomol 5 nM, 14 days
[2] = with HEK293T FDX1 KO, elesclomol 40 nM, 11 days
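Further: variant abundance is its share of total variant reads in each endpoint sample, from next-generation sequencing of the integrated ORF PCR-amplified out of genomic DNA.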

Variant | scaled log2 fold change [1] | scaled log2 fold change [2]
F103S | 0.912 | 0.923
F103E | 0.983 | 0.679
F103Q | 0.935 | 1.02
F103P | 1.14 | 1.17
F103M | 0.347 | 0.516
F103I | 0.186 | 0.171
F103L | 0.27 | 0.542
F103G | 1.04 | 2.28
F103V | 0.282 | -0.441
F103N | 1.06 | 1.03
F103D | 1.07 | 0.779
F103A | 0.92 | 0.527
F103R | 1.09 | 1.06
F103H | 0.673 | 1.17
F103W | 0.392 | -1.07
F103T | 1.16 | 0.355
F103Y | 0.192 | -0.0547
F103C | 0.693 | 0.536
F103K | 1.2 | 1.14

Variant | scaled log2 fold change [1] | scaled log2 fold change [2]
D101Y | 0.239 | 1.05
D101Q | 0.0405 | -0.42
D101W | 0.326 | -0.257
D101T | -0.218 | -0.744
D101S | -0.19 | -0.82
D101V | 0.24 | -0.613
D101N | -0.201 | -0.0138
D101R | 0.0225 | -0.328
D101P | -0.357 | -0.96
G102Q | -0.0113 | 0.76
G102K | 0.473 | -0.277
G102C | 0.0125 | 0.0278
G102Y | 0.333 | -0.0235
G102L | 0.0952 | -0.752
G102T | -0.0667 | 2.33
G102R | 0.164 | -1.7
G102S | 0.293 | 0.861
G102N | -0.336 | 0.807
G102E | 0.427 | -0.163

Variant | scaled log2 fold change [1] | scaled log2 fold change [2]
G102M | -0.196 | -0.665
G102F | -0.00949 | -0.289
G102H | 0.0379 | 0.869
G102P | 0.0181 | -0.00988
G102D | -0.0623 | -0.526
G102I | 0.0866 | 0.0202
G102V | 0.298 | -0.174
G102W | 0.225 | 0.879
G102A | 0.0393 | -0.812
C106E | 1.06 | 1.3
C106H | 1.11 | 1
C106V | 1.17 | 1.11
C106S | 1.19 | 1.14
C106D | 1.03 | 1.3
C106P | 1.07 | 0.899
C106L | 1.09 | 1.32
C106R | 1.07 | 1.14
C106I | 1.16 | 1.5
C106M | 1.1 | 1.09
